Results reported in PMC9951875.

Target: UspA2 (ubiquitous surface protein A2), displayed on E. coli BL21(DE3) (Moraxella catarrhalis Bc5) (UniProt Q9XD55)
Test: fluorescence cell-binding titration (eluted FAM-aptamer)

Row | Sequence | Kd [nM]
1 | ATCCAGAGTGACGCAGCATGGGACGGTGCGGGGGAGGAGGATGAGCGTGGTCGTTGGGTGGCTGCCGCAATGTCGTTGGTGGCCC [FAM-Apt1] | 214
2 | GGGCCACCAACGACATTGCGGCAGCCACCCAACGACCACGCTCATCCTCCTCCCCCGCACCGTCCCATGCTGCGTCACTCTGGAT [FAM-Apt1_RC] | 3.4
